Values quoted from earlier work in publication PMC7826847.
Like-named read-outs stand apart in the source and are kept apart here.

Columns and labels:
Nectin-3 [1] = target: Nectin-3 (UniProt Q9NQS3)
Nectin-3 [2] = target: Nectin-3 (UniProt Q9NQS3); remark: listed apart in the source

Chain of Nectin-3 (Q9NQS3 58-404): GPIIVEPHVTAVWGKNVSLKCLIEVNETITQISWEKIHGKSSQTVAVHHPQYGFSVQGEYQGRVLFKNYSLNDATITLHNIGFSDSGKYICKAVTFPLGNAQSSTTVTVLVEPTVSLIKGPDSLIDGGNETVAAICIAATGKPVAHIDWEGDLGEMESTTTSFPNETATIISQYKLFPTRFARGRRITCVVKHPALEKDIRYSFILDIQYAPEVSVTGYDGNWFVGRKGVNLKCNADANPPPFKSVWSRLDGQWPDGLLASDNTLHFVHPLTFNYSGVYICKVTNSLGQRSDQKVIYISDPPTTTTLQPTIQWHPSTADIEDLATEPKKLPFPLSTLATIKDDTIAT
Chain of Nectin-1 (Q15223 31-355): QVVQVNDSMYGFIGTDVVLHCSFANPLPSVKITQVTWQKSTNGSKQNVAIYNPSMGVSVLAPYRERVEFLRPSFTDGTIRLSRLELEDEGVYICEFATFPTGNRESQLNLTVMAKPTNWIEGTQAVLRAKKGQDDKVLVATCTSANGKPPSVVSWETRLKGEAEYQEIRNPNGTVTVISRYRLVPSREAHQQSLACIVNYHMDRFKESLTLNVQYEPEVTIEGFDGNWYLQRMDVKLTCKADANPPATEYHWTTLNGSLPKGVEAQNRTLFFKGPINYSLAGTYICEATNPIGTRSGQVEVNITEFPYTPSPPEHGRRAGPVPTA
Chain of Nectin-2 (Q92692 32-360): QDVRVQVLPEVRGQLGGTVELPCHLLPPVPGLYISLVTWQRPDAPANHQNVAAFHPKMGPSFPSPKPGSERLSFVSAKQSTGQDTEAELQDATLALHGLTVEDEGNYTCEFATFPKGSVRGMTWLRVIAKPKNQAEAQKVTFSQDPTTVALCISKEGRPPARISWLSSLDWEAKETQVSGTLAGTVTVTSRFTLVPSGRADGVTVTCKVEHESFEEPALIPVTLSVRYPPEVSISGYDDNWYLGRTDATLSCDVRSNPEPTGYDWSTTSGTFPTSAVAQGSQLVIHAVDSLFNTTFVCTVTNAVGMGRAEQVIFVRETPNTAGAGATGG

Row | Kd (Nectin-3 [1]) [nM] | Kd (Nectin-3 [2]) [nM] | Substance
1 | 360 |  | Nectin-2 (from UniProt Q92692)
2 |  | 2.3 | Nectin-1 (from UniProt Q15223)
